Data published in patent US20240083965A1 (Novo Nordisk, published 2024).
*1 amine or outer side, *2 acyl side, *3 side chain or, on linkers, in order; H or OH if unused. Where no end group is shown, it is not given here. Side-chain parts run from the residue outwards. [ ]: non-standard residue; d: D form. The star is where a group is joined. C16 diacid = O=C(O)CCCCCCCCCCCCCCC(=O)*; γGlu = O=C(O)[C@H](CCC(=O)[*:2])N[*:1]; AEEA = NCCOCCOCC(=O)O; Aib = CC(C)(N)C(=O)O

What was measured:
human GIP receptor = target: T1, human GIP receptor (human, UniProt P48546 22-466); experiment: cell-based or functional assay
T1 sequence (looked up): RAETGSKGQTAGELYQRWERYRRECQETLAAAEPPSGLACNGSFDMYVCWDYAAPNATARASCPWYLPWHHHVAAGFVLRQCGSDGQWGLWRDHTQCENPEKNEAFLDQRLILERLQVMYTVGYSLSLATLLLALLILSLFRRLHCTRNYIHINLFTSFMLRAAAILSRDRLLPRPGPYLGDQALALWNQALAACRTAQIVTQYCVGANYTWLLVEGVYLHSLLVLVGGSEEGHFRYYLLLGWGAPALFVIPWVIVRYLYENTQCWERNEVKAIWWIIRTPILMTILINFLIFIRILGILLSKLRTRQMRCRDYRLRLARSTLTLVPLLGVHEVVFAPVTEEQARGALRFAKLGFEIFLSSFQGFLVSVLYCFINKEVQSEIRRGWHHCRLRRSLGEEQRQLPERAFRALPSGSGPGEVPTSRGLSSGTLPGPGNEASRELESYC

human GLP-1 receptor = human GLP-1 receptor (human, UniProt P43220 24-463); experiment: cell-based or functional assay

Q: What does the source list for “human GIP (from UniProt P09681 52-93) (ligand)”?
A: hGIPR, CRE Luc 0% HSA EC50 (pM) (human GIP receptor): 11.3 pM; hGIPR, CRE Luc 1% HSA EC50 (pM) (human GIP receptor): 6.4 pM

B1: Parent compound No. 3 (peptide)
peptide: Y[Aib]EGTFTSDYSILLEEQAAREFIEWLLAGGPSKGAPPPS-OH
modifications: not fully specified (residue 33)
Q: How did the “hGLP-1R, CRE Luc 0% HSA EC50 (pM)” value (human GLP-1 receptor) turn out when B1 was run?
A: 4 pM

Q: And the “hGLP-1R, CRE Luc 1% HSA EC50 (pM)” value (human GLP-1 receptor)?
A: 360 pM

Q: And the “hGIPR, CRE Luc 0% HSA EC50 (pM)” value (human GIP receptor)?
A: 5.6 pM

Q: What about the “hGIPR, CRE Luc 1% HSA EC50 (pM)” value (human GIP receptor) of the same molecule?
A: 444 pM

B2: Parent compound No. 2 (peptide)
peptide: Y[Aib]EGTFTSDYSILLEEQAAREFIEWLLAGGPSKGAPPPS-OH
modifications: not fully specified (residue 33)
Q: For B2, which “hGLP-1R, CRE Luc 0% HSA EC50 (pM)” value (human GLP-1 receptor) is on record?
A: 1.5 pM

Q: And the “hGLP-1R, CRE Luc 1% HSA EC50 (pM)” value (human GLP-1 receptor)?
A: 111 pM

Q: And the “hGIPR, CRE Luc 0% HSA EC50 (pM)” value (human GIP receptor)?
A: 1.8 pM

Q: What about the “hGIPR, CRE Luc 1% HSA EC50 (pM)” value (human GIP receptor) of the same molecule?
A: 97 pM

B3: Parent compound No. 4 (peptide)
peptide: Y[Aib]EGTFTSDYSILLEKQAAREFIEWLLAGGPSSGAPPPS-OH
modifications: not fully specified (residue 16)
Q: With B3 as the molecule, how does the “hGLP-1R, CRE Luc 0% HSA EC50 (pM)” value (human GLP-1 receptor) read?
A: 4.2 pM

Q: And the “hGLP-1R, CRE Luc 1% HSA EC50 (pM)” value (human GLP-1 receptor)?
A: 202 pM

Q: And the “hGIPR, CRE Luc 0% HSA EC50 (pM)” value (human GIP receptor)?
A: 4.7 pM

Q: And the “hGIPR, CRE Luc 1% HSA EC50 (pM)” value (human GIP receptor)?
A: 188 pM

B4: Parent compound No. 1 (peptide)
peptide: Y[Aib]EGTFTSDYSILLEEQAAREFIEWLLAGGPSK([AEEA-AEEA-γGlu-C16 diacid])GAPPPS-OH
modifications: N-terminus assumed
SMILES: CC[C@H](C)[C@H](NC(=O)[C@H](Cc1ccccc1)NC(=O)[C@H](CCC(=O)O)NC(=O)[C@H](CCCNC(=N)N)NC(=O)[C@H](C)NC(=O)[C@H](C)NC(=O)[C@H](CCC(N)=O)NC(=O)[C@H](CCC(=O)O)NC(=O)[C@H](CCC(=O)O)NC(=O)[C@H](CC(C)C)NC(=O)[C@H](CC(C)C)NC(=O)[C@@H](NC(=O)[C@H](CO)NC(=O)[C@H](Cc1ccc(O)cc1)NC(=O)[C@H](CC(=O)O)NC(=O)[C@H](CO)NC(=O)[C@@H](NC(=O)[C@H](Cc1ccccc1)NC(=O)[C@@H](NC(=O)CNC(=O)[C@H](CCC(=O)O)NC(=O)C(C)(C)NC(=O)[C@@H](N)Cc1ccc(O)cc1)[C@@H](C)O)[C@@H](C)O)[C@@H](C)CC)C(=O)N[C@@H](CCC(=O)O)C(=O)N[C@@H](Cc1c[nH]c2ccccc12)C(=O)N[C@@H](CC(C)C)C(=O)N[C@@H](CC(C)C)C(=O)N[C@@H](C)C(=O)NCC(=O)NCC(=O)N1CCC[C@H]1C(=O)N[C@@H](CO)C(=O)N[C@@H](CCCCNC(=O)COCCOCCNC(=O)COCCOCCNC(=O)CC[C@H](NC(=O)CCCCCCCCCCCCCCC(=O)O)C(=O)O)C(=O)NCC(=O)N[C@@H](C)C(=O)N1CCC[C@H]1C(=O)N1CCC[C@H]1C(=O)N1CCC[C@H]1C(=O)N[C@@H](CO)C(=O)O
Q: B4 was tested. Which “hGLP-1R, CRE Luc 0% HSA EC50 (pM)” value (human GLP-1 receptor) did it give?
A: 2.1 pM

Q: What about the “hGLP-1R, CRE Luc 1% HSA EC50 (pM)” value (human GLP-1 receptor) of the same molecule?
A: 154 pM

Q: And the “hGIPR, CRE Luc 0% HSA EC50 (pM)” value (human GIP receptor)?
A: 3.1 pM

Q: What about the “hGIPR, CRE Luc 1% HSA EC50 (pM)” value (human GIP receptor) of the same molecule?
A: 156 pM
